Here are results for 7 molecules from patent publication US20180326053A1 (OKLAHOMA MEDICAL RESEARCH FOUNDATION, published 2018).

The target of assay [1] is T1, human activated Protein C (human, Light chain (chain 1): the Gla domain holds gamma-carboxyglutamates, from memory at pos 6, 7, 14, 16, 19, 20, 25, 26 and 29, written E. Pos 71 is beta-hydroxy-Asp, written D. N-glycans are present. …).
T1 construct: also called aPC; APC
T1 light: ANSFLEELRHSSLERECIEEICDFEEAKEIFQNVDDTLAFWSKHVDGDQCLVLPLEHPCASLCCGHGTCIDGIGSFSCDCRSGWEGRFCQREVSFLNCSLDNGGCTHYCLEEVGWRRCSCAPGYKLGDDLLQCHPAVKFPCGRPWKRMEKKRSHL
T1 heavy: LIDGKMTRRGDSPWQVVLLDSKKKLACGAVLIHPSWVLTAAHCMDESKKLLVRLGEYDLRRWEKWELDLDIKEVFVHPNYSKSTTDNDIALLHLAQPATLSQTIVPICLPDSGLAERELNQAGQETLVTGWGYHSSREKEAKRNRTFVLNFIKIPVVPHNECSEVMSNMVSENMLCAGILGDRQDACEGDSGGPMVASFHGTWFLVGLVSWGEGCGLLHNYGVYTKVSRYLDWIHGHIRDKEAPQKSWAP
Put plainly: aPC-ELISA, human aPC coated, IgG titrated. As for the experimental part:
(§1) Plates (Nunc, cat#442404) were coated with 100 μl of human aPC (1 μg/ml) or hPC (2 μg/ml) diluted in DPBS (Gibco, cat#14040) overnight (o/n) at 4° C. After washing, the ELISA plate was blocked with 200 μl MPBST for 1 hr at RT, and tapped dry on a stack of paper towels. To each well 100 μl of IgG to be tested was added, and incubated for 1 hr at RT (for EC₅₀ determinations 1:3 dilutions were performed starting at 20 nM). Plates were washed 5× with PBST. 100 μl of anti-hIgG Fc-HRP (Sigma, cat#A0170) diluted 1:10,000 in PBST was added to each well. Plates were washed and 100 μl/well of TMB substrate was added and incubated at room temperature for 5 min. 100 μl/well of 1 N HCl was added to terminate the reaction. The plate was read with an ELISA plate reader (Biotek, Elx405) at 450 nm wavelength.
In general terms: In an ELISA, binding on a coated surface is turned into a signal by an enzyme label.

The target in assay [2] is T2, human Protein C (unactivated, zymogen) (human, UniProt P04070 43-461).
T2 construct: mature; also called PC; hPC
Put plainly: ELISA, plate coated with human PC, IgG titrated (PC-ELISA). On the procedure: as §1

Assay [3] has as its target T1, human activated Protein C. As to the kind of experiment: SPR, human aPC. A general note: Surface plasmon resonance follows binding to a sensor surface in real time, without labels.
The target in assay [4] is T2, human Protein C (unactivated, zymogen). Put plainly: PC-ELISA, hPC coated. On the procedure:
as §1

The target in assay [5] is T1, human activated Protein C. As to the kind of experiment: Biacore (SPR).

B1: TPP-3656 (HU1573-V3-hIgG2Kappa) (antibody, V domains shown)
VH: EVQLVESGGGLVQPGGSLRLSCAASGFTFSNYYLNWVRQAPGKGLEWVGDIRLKSNNYEKHYAESVKGRFTISRDDSKNSLYLQMNSLKTEDTAVYYCAREGDYFDYWGQGTLVTVSS
VL: DIVLTQSPASLAVSPGQRATITCKASESVDSFGATFMHWYQQKPGQPPKLLIYLASNLESGVPARFSGSGSGTDFTLTINPVEANDTANYYCQQNNEDPYTFGQGTKLEIKR
notes: also called TPP-3656 VK7-3
Consider B1, for which the EC50 (commonly the concentration giving half of the maximal effect) in assay [1] is 670 pM. Moreover, the binding result in assay [2] is “no binding (tested: 10 µM (log M -5))”.

B2: TPP-3657 (HU1573-V2-hIgG2Kappa) (antibody, V domains shown)
VH: EVQLVESGGGLVQPGGSLRLSCAASGFTFSNYYLNWVRQAPGKGLEWVADIKSNNYEKHYAESVKGRFTISRDNAKNSLYLQMNSLRAEDTAVYYCAREGDYFDYWGQGTLVTVSS
VL: DIVLTQSPASLAVSPGQRATITCKASESVDSFGATFMHWYQQKPGQPPKLLIYLASNLESGVPARFSGSGSGTDFTLTINPVEANDTANYYCQQNNEDPYTFGQGTKLEIKR
notes: also called TPP-3657 VK7-3
As for B2, in assay [1], the EC50 is 430 pM. For the same molecule, the binding result in assay [2] is given as “no binding (tested: 10 µM (log M -5))”.

B3: TPP-3356 (H1573VK2-VH1Cgl1-hIgG2Kappa) (antibody, V domains shown)
VH: EVQLVESGGGLVQPGGSLRLSCAASGFTFSNYYLNWVRQAPGKGLEWVADIRLKSNNYEKHYAESVKGRFTISRDDSKNSLYLQMNSLKTEDTAVYYCIREGDYFDYWGQGTTVTVSS
VL: DIVMTQTPLSLSVTPGQPASISCKASESVDSFGATFMHWYLQKPGQPPQLLIYLASNLESGVPDRFSGSGSGTDFTLKISRVEAEDVGVYYCQQNNEDPYTFGQGTKLEIKR
notes: also called TPP-3356 VK2D-29
As to B3, binding in assay [3] was put at a Kd of 13600 pM. For the same molecule, in assay [4], the binding result is on record as “no binding (tested: up to 10 µM)”. Besides, in assay [1], it took 500 pM to reach a half-maximal effect (EC50).

B4: TPP-3357 (H1573Vk2A-VH1Cgl2-hIgG2Kappa) (antibody, V domains shown)
VH: EVQLVESGGGLVQPGGSLRLSCAASGFTFSSYYMNWVRQAPGKGLEWVSDIRLKSNNYEKHYADSVKGRFTISRDNAKNSLYLQMNSLRAEDTAVYYCAREGDYFDYWGQGTLVTVSS
VL: DIVLTQTPLSLSVTPGQPASISCRASESVDSFGATFMHWYLQKPGQPPQLLIYLASNLESGVPDRFSGSGSGTDFTLKISRVEAEDVGVYYCQQNNEDPYTFGQGTKLEIKR
As to B4, in assay [3], the Kd (in general, the free concentration of one partner at which half of the binding sites on the other are occupied at equilibrium, for simple one-to-one binding) was determined as 23400 pM.

B5: TPP-3658 (HU1573-V1-hIgG2Kappa) (antibody, V domains shown)
VH: EVQLVESGGGLVQPGGSLRLSCAASGFTFSNYYLNWVRQAPGKGLEWVADIRLKSNNYEKHYAESVKGRFTISRDDSKNSLYLQMNSLKTEDTAVYYCIREGDYFDYWGQGTTVTVSS
VL: DIVLTQSPASLAVSPGQRATITCKASESVDSFGATFMHWYQQKPGQPPKLLIYLASNLESGVPARFSGSGSGTDFTLTINPVEANDTANYYCQQNNEDPYTFGQGTKLEIKR
notes: also called TPP-3658 VK7-3
Regarding B5, in assay [1], the midpoint of the response, the EC50, lay at 650 pM. The binding result in assay [2] is recorded as “no binding (tested: 10 µM (log M -5))”.

B6: TPP-3639 (HU1573-V4-hIgG2Kappa) (antibody, V domains shown)
VH: EVQLVESGGGLVQPGGSLRLSCAASGFTFSSYYMNWVRQAPGKGLEWVADIRLKSNNYEKHYADSVKGRFTISRDNAKNSLYLQMNSLRAEDTAVYYCAREGDYFDYWGQGTLVTVSS
VL: DIVLTQSPASLAVSPGQRATITCRASESVDSFGATFMHWYQQKPGQPPKLLIYLASNLESGVPARFSGSGSGTDFTLTINPVEANDTANYYCQQNNEDPYTFGQGTKLEIKR
notes: also called TPP-3639 VK7-3
B6: the binding result in assay [4] is “no binding”. In addition, it took 420 pM to reach a half-maximal effect in assay [1] (EC50).

B7: TPP-4885 (BAY1896502) (antibody, human IgG2, kappa, V domains shown)
VH: EVQLVESGGGLVQPGGSLRLSCAASGFTFSNYYLNWVRQAPGKGLEWVGDIRLKSNNYEKHYAESVKGRFTISRDDSKNSLYLQMNSLKTEDTAVYYCAREGDYFDYWGQGTLVTVSS
VL: DIVLTQSPASLAVSPGQRATITCKASESVDSFGATFMHWYQQKPGQPPKLLIYLASNLESGVPARFSGSGSGTDFTLTINPVEADDTANYYCQQNNEDPYTFGQGTKLEIKR
notes: TPP-3656 with the N85D mutation in the light chain; IgG2/kappa like TPP-3656; also called type II ab BAY1896502
In turn, B7 displayed a Kd in assay [5] of 14000 pM.
